Results as given in patent US20220162314A1 (ASHER BIOTHERAPEUTICS, published 2022).

Assays:
[1] = target: T1, Recombinant human CD8ab protein (extracellular domains of CD8a and CD8b with leucine zippers and tags) (human, UniProt P01732 22-182; P10966 22-170); test: SPR as in Example 1 (antibody captured, soluble CD8ab as analyte)
T1 construct: extracellular domain; Secreted from HEK293 cells; also called recombinant CD8ab; soluble CD8ab antigen; not shown: acidic leucine zipper; 8x Histidine tag; basic leucine zipper; Strep-tag II
Protocol: (§1) Recombinant human CD8ab protein was generated. […] Antibodies were first captured on an anti-hJgG-Fc CM5 or CM4 surface prepared using the Human Antibody Capture Kit (Cytiva). […] Dissociation was monitored for 5-10 minutes, and the anti-hJgG-Fc surface was regenerated with 3M MgCl2 before recapturing mAb in each subsequent cycle. Binding data were analyzed by Biacore T200 Evaluation Software version 3.2 using a 1:1 binding model.

[2] = target: T2, Recombinant CD8a (Sino biological) (human, UniProt P01732 22-182); test: ELISA, coated recombinant CD8a, antibody 30 nM to 0.0009 nM
T2 construct: also called CD8a alone
Protocol: (§2) Binding specificity of the antibodies was determined by ELISA. […] of recombinant CD8ab, CD8a (Sino biological), CD8b (Sino biological) and ovalbumin (Sigma) or Erb2 (human epidermal growth factor receptor 2) (Sino biological) in PBS were coated onto the maxisorp plate overnight at 4° C. Ovalbumin or Erb2 was used as negative control. Plate was then blocked with casein blocking solution (Thermo Scientific) for 1 hr at room temperature. After blocking, plate was washed with wash buffer (PBS/0.05% Tween-20). Next, dilution of antibody from 30 nM to 0.0009 nM in PBS/0.5% BSA/0.05% Tween-20 was added onto the plate and incubated for 1-2 hr at room temperature. After incubation, plate was washed, and incubated with anti-human IgG (Fc specific)-HRP conjugate or anti-mouse IgG (Fc specific)-HRP conjugate (Jackson Immunoresearch) in PBS/0.5% BSA/0.05% Tween-20 for 1 hr. Binding was detected by adding TMB substrate (SeraCare) to the plate, followed by stopping solution of 0.1M HCl. Binding absorbance was read using GloMax® Discover Microplate Reader (Promega).

[3] = target: T3, Recombinant CD8b (Sino biological) (human, UniProt P10966 22-170, limits assumed); test: ELISA, coated recombinant CD8b
T3 construct: also called CD8b alone
Protocol: as §2

[4] = target: T3, Recombinant CD8b (Sino biological); test: ELISA: antigen coated on the plate, antibody titrated, anti-IgG (Fc)-HRP and TMB, A450
Protocol: as §2

[5] = target: T1, Recombinant human CD8ab protein …; test: as above
Protocol: as §2

[6] = target: T2, Recombinant CD8a (Sino biological); test: as above
Protocol: as §2

[7] = target: T1, Recombinant human CD8ab protein …; test: SPR (Biacore T200, 37 C), antibody captured by anti-human IgG Fc, soluble CD8ab as analyte, 1:1 model
Protocol: as §1

[8] = target: T4, CD8 on human CD8+ T cells (CD3+CD8a+CD8b+ cells of hPBMCs) (human, UniProt P01732 22-235; P10966 22-210); test: flow cytometry on human PBMCs, CD8+ T cells (CD3+CD8a+CD8b+), anti-human Fc MFI
T4 construct: whole, on cells; also called CD8ab+ T cells
Protocol: (§3) Binding of CD8ab antibodies to T cells (FIG. 4) and NK cells (FIG. 5) in hPBMCs was detected by staining with anti-human Fc antibody conjugated to APC. Anti-hFc was used to measure the binding of CD8 antibodies containing hFc. Mean fluorescence intensity (MFI) of staining with anti-hFc is used to denote binding. Binding of anti-hFc was determined in CD3+CD8a+CD8b+ cells (CD8+ T cells) and CD3-CD56+CD8a+ cells (CD8+NK cells).
(§4) The binding of CD8ab antibodies on cells was determined by flow cytometry. Freshly isolated PBMCs were incubated with CD8ab antibodies for 2 hours at 4° C. Cells were then stained with antibodies against surface markers CD3 (UCHT1), CD4 (RPA-T4), CD8a (SK1), CD56 (HCD56), and anti-human Fc antibody (HP6017). Anti-human Fc antibody was used to measure the binding of CD8ab antibodies containing hFc. Stained cells were washed and analyzed by flow cytometry and mean fluorescence intensity (MFI) of staining with anti-hFc was used to denote binding.

[9] = target: T5, CD8aa on human CD8+ NK cells (CD3-CD56+CD8a+ cells of hPBMCs) (human, UniProt P01732 22-235); test: flow cytometry on human PBMCs, CD8+ NK cells (CD3-CD56+CD8a+), anti-human Fc MFI
T5 construct: whole, on cells; also called CD8aa+ NK cells
Protocol: as §3, §4

T3 sequence (P10966 22-170 limits assumed): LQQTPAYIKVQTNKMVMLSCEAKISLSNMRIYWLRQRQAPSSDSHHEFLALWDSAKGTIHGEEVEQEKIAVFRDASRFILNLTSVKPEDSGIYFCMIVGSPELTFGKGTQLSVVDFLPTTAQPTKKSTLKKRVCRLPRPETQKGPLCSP
T2 sequence (P01732 22-182 limits assumed): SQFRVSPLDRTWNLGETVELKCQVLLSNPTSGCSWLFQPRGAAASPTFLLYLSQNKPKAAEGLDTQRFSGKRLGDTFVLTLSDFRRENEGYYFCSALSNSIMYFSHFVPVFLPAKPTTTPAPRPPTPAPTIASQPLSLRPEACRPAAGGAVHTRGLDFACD
T1 sequence (P01732 22-182, chain 1 of 2): as the sequence (P01732 22-182 limits assumed) above
T1 sequence (P10966 22-170, chain 2 of 2): as the sequence (P10966 22-170 limits assumed) above
T5 sequence (P01732 22-235): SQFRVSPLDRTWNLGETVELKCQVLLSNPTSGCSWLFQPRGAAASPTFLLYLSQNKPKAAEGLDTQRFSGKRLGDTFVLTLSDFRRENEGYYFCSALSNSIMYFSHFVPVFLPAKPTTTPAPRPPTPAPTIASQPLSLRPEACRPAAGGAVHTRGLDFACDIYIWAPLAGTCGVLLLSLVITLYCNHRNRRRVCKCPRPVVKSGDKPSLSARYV
T4 sequence (P01732 22-235, chain 1 of 2): as the sequence (P01732 22-235) above
T4 sequence (P10966 22-210, chain 2 of 2): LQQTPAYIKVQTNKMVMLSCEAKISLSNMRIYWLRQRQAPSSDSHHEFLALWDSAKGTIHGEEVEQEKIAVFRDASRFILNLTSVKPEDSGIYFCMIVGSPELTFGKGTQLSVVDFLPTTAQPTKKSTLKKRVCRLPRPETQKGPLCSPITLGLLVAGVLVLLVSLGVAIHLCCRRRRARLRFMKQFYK

Binder	Kd [1] [nM]	koff [1] [s⁻¹]	kon [1] [M⁻¹ s⁻¹]	binding result [2]	binding result [3]	Kd [7] [nM]	koff [7] [s⁻¹]	kon [7] [M⁻¹ s⁻¹]	also measured
xhCD8v10 (antibody, human IgG1, V domains shown, Improved version based on xhCD8v6) VH: EVQLVESGGGLVQPGGSLRLSCAASGFTFSSYAMSWVRQAPGKGLEWVSDITYAGGSTAYADSVKGRFTISRDNAKNSLYLQMNSLRAEDTAVYYCARSNAYAWDDALDIWGQGTMVTVSS VL: not shown	36.4	0.00386	106000	–	–	–	–	–	–
xhCD8v11 (antibody, human IgG1, V domains shown, Improved version based on xhCD8v6) VH: EVQLVESGGGLVQPGGSLRLSCAASGFTFSSYAMSWVRQAPGKGLEWVSDITYAGGSTAYADSVKGRFTISRDNAKNSLYLQMNSLRAEDTAVYYCARSNAYAWDDALDIWGQGTLVTVSS VL: not shown	37.8	0.00361	95500	–	–	–	–	–	–
xhCD8v13 (antibody, human IgG1, V domains shown, Improved version based on xhCD8v2) VH: QVQLVQSGAEVKKPGSSVKVSCKASGGTFSSYAISWVRQAPGQGLEWMGGIIPGYATANYAQKFQGRVTITADESTSTAYMELSSLRSEDTAVYYCARDAAGIRLFADWGQGTLVTVSS VL: DIQMTQSPSSLSASVGDRVTITCRASQEIYGALNWYQQKPGKAPKLLIYGATNLQSGVPSRFSGSGSGTDFTLTISSLQPEDFATYYCQSTYDAPWTFGGGTKVEIK	81.8	0.0301	368000	no binding (tested: 30 nM)	binds	–	–	–	–
xhCD8v12 (antibody, human IgG1, V domains shown, Improved version based on xhCD8v2) VH: QVQLVQSGAEVKKPGSSVKVSCKASGGTFSSYAISWVRQAPGQGLEWMGGIIPGYATANYAQKFQGRVTITADESTSTAYMELSSLRSEDTAVYYCARDAAGIRLFADWGQGTLVTVSS VL: DIQMTQSPSSLSASVGDRVTITCRASQSIYGALNWYQQKPGKAPKLLIYGASNLQSGVPSRFSGSGSGTDFTLTISSLQPEDFATYYCQSTYTAPWTFGGGTKVEIK	105	0.0271	259000	–	–	–	–	–	EC50 (read off the curve) [4]: ~0.05 nM; EC50 (read off the curve) [5]: ~0.02 nM; binding result [6]: no binding (tested: 30 nM)
xhCD8v9 (antibody, human IgG1, V domains shown, Improved version based on xhCD8v2) VH: QVQLVQSGAEVKKPGSSVKVSCKASGGTFSSYAISWVRQAPGQGLEWMGGIIPGAATANYAQKFQGRVTITADESTSTAYMELSSLRSEDTAVYYCARDAAGIRLFADWGQGTLVTVSS VL: DIQMTQSPSSLSASVGDRVTITCRASQEIYGALNWYQQKPGKAPKLLIYGATNLQSGVPSRFSGSGSGTDFTLTISSLQPEDFATYYCQSTYDAPWTFGGGTKVEIK	121	0.0273	225000	no binding (tested: 30 nM)	binds	–	–	–	–
xhCD8v2 (antibody, human IgG1, V domains shown) VH: QVQLVQSGAEVKKPGSSVKVSCKASGYRFHNFAISWVRQAPGQGLEWMGGIIPGHAKANYAQKFQGRVTITADESTSTAYMELSSLRSEDTAVYYCARDGLGIRLFADWGQGTLVTVSS VL: DIQMTQSPSSLSASVGDRVTITCRASQEIYGALNWYQQKPGKAPKLLIYGATNLQSGVPSRFSGSGSGTDFTLTISSLQPEDFATYYCQDIYDAPWTFGGGTKVEIK	–	–	–	–	–	41.6	0.02	483000	EC50 (read off the curve) [4]: ~0.06 nM; EC50 (read off the curve) [5]: ~0.03 nM; binding result [6]: no binding (tested: 30 nM)
xhCD8v7 (antibody, human IgG1, V domains shown) VH: EVQLVESGGGLVQPGRSLRLSCAASGFTFDDYAMHWVRQAPGKGLEWVAVISYDGSNKYYADSVKGRFTISRDNSKNTLYLQMNSLRAEDTAVYYCAKDRIGWYDYDAFDIWGQGTMVTVSS VL: EIVLTQSPATLSVTPGEGATLSCRASHSVGSNLAWYQQKPGQAPRLLIYDASNRATGIPARFSGSGSGTDFTLTISSLEPEDLAVYYCQQRSNWPPTFGQGTRLEIK	–	–	–	–	–	1.08	0.000922	855000	EC50 (read off the curve) [8]: ~0.05 nM; binding result [9]: no binding (tested: 100 nM); binding result [4]: no binding (tested: 30 nM); EC50 (read off the curve) [5]: ~0.09 nM; binding result [6]: no binding (tested: 30 nM)

Second part, led by results:

Kd [1] [nM]	koff [1] [s⁻¹]	kon [1] [M⁻¹ s⁻¹]	binding result [2]	binding result [3]	Kd [7] [nM]	koff [7] [s⁻¹]	kon [7] [M⁻¹ s⁻¹]	Binder	also measured
94.3	0.0175	186000	–	–	–	–	–	xhCD8v15 (antibody, human IgG1, V domains shown, Improved version based on xhCD8v6) VH: EVQLVESGGGLVQPGGSLRLSCAASGFTFSSYAMSWVRQAPGKGLEWVSDISYAGGSTAYADSVKGRFTISRDNAKNSLYLQMNSLRAEDTAVYYCARSNAYAWDDALDIWGQGTLVTVSS VL: not shown	–
52.9	0.00855	162000	–	–	–	–	–	xhCD8v14 (antibody, human IgG1, V domains shown, Improved version based on xhCD8v6) VH: EVQLVESGGGLVQPGGSLRLSCAASGFTFSSYAMSWVRQAPGKGLEWVSDISYAGGSTAYADSVKGRFTISRDNAKNSLYLQMNSLRAEDTAVYYCARSNAYAWDDALDIWGQGTMVTVSS VL: not shown	–
–	–	–	no binding (tested: 30 nM)	binds	137	0.0493	360000	xhCD8v4 (antibody, human IgG1, V domains shown) VH: QVQLVQSGAEVKKPGSSVKVSCKASGYTFTKYAISWVRQAPGQGLEWMGGIIPGHAKANYAQKFQGRVTITADESTSTAYMELSSLRSEDTAVYYCARDGLGIRLFADWGQGTLVTVSS VL: DIQMTQSPSSLSASVGDRVTITCRASQKIYGALNWYQQKPGKAPKLLIYGATNLQSGVPSRFSGSGSGTDFTLTISSLQPEDFATYYCQNTYDTPWTFGGGTKVEIK	–
–	–	–	no binding (tested: 30 nM)	binds	72.3	0.0379	524000	xhCD8v3 (antibody, human IgG1, V domains shown) VH: QVQLVQSGAEVKKPGSSVKVSCKASGSRFYKFAISWVRQAPGQGLEWMGGIIPGHAKANYAQKFQGRVTITADESTSTAYMELSSLRSEDTAVYYCARDGLGIRLFADWGQGTLVTVSS VL: DIQMTQSPSSLSASVGDRVTITCRASQEIYGALNWYQQKPGKAPKLLIYGATNLQSGVPSRFSGSGSGTDFTLTISSLQPEDFATYYCQDIYDAPWTFGGGTKVEIK	–
–	–	–	no binding (tested: 30 nM)	binds	117	0.0419	357000	xhCD8v5 (antibody, human IgG1, V domains shown) VH: QVQLVQSGAEVKKPGSSVKVSCKASGSGFRGHAISWVRQAPGQGLEWMGGIIPGHAKANYAQKFQGRVTITADESTSTAYMELSSLRSEDTAVYYCARDGLGIRLFADWGQGTLVTVSS VL: DIQMTQSPSSLSASVGDRVTITCRASQKIYGALNWYQQKPGKAPKLLIYGATNLQSGVPSRFSGSGSGTDFTLTISSLQPEDFATYYCQNTYDTPWTFGGGTKVEIK	–
